± gives the standard deviation of the averaged measurements.
test system: ATP; assay: switch fluorescence ratio, 500 uM ATP over buffer (Cy3 cluster intensity, sum of 5 cycles each) (fold (ratio)); higher = stronger signal-on switching upon ATP binding; sequences stand for … in TCGTCGGCAGCGTCAGATGTGTATAAGAGACAGTTTTTTTTTTTTTTTTTTTTTTTTT…TC; details: aptamer strand: ATP DNA aptamer (quencher-CACCTGGGGGAGTATTGCGGAGGAAGG + anchor), 100 nM annealed; ATP concentration: 500 uM
Outline: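 Imaging in selection buffer was followed by imaging after 15 min with 500 uM ATP at 22 °C, for Cy3-labelled switching-strand clusters annealed to 100 nM quencher-labelled ATP aptamer on a modified Illumina MiSeq flow-cell. Five of these buffer/ATP cycles ran, separated by NaOH stripping and re-annealing. The fluorescence ratio per cluster is summed target-cycle over summed buffer-cycle Cy3 intensity, averaged per switch-domain sequence; clusters outside 100-1000 RFU were removed.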
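Also: ATP exposure 15 min at 22 °C before imaging.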

Sequence | switch fluorescence ratio
GAGGGAAGTT | 1.04 ± 0.037
TGTTGCAGAG | 1.03 ± 0.049
ACTATTTTTT | 1 ± 0.029
GTATTTCATA | 1.01 ± 0.0031
AAGGGAATTT | 1.17 ± 0.36
GACCTCAGAC | 1.09 ± 0.024
TATATGACTT | 1 ± 0.012
TGGGGAAAGG | 0.978 ± 0.034
CGTGACTCTA | 1.03 ± 0.046
AATTTGAGGA | 0.972 ± 0.02
CCTAATTGAA | 0.9728 ± 0.0041
CATGAGAGGT | 1 ± 0.018
CTAATTAGAT | 1 ± 0.022
GTTGTGGTTC | 0.96755 ± 0.00092
TTTTCGGAGT | 1.01 ± 0.037
TCAAAAAATT | 1.02 ± 0.037
GCGGGTTGCC | 0.9871 ± 0.0013
TTACACGAGA | 1.054 ± 0.0057
GAAAGGGTTT | 1.01 ± 0.048
CACCCTTTTC | 1.02 ± 0.024
TGATTGCCGG | 0.996 ± 0.02
TGGGCGTCGG | 0.999 ± 0.032
TTTGGTCCGG | 1.01 ± 0.029

Sequence | switch fluorescence ratio
AAATGGTCGA | 0.974 ± 0.01
GGTTTAGGGG | 0.985 ± 0.032
ACACGTTACA | 1.62 ± 0.082
CGGGTTGGTC | 1.05 ± 0.041
TTGGTTACAG | 0.978 ± 0.031
TGATAGGTCT | 0.986 ± 0.03
TATAATATCG | 0.961 ± 0.015
TGCAGATTTA | 1.01 ± 0.014
TAGATAAGGC | 0.981 ± 0.018
TTATCCTGGT | 0.975 ± 0.011
ATATTTGATT | 0.977 ± 0.021
TACCAGTGCG | 1.19 ± 0.15
TATTTACGCT | 1.05 ± 0.025
AGGTGATGGG | 1.04 ± 0.023
GTTCGTGATA | 1.05 ± 0.043
TTGGTGGAAT | 1.06 ± 0.093
CGAGTGAATC | 1.01 ± 0.019
TTTTATTGCT | 0.991 ± 0.036
CGGGGAGCCA | 1.001 ± 0.01
ACGGCTAAGG | 1.06 ± 0.029
CGTTTGGGTC | 1.01 ± 0.031
TGGCTCGGGG | 1.03 ± 0.051
TTTGGTGTTT | 1.01 ± 0.035

Sequence | switch fluorescence ratio
CGTGGTGTGT | 0.992 ± 0.0011
TGAAAAAAAG | 0.973 ± 0.04
AATATTAGGT | 0.995 ± 0.023
TTTTGTCCAT | 0.992 ± 0.015
ACATATTACT | 1.13 ± 0.0066
GAGAGGCTGC | 0.975 ± 0.02
ATTCTGTTTT | 0.986 ± 0.028
GGGGATGGTA | 0.978 ± 0.025
AAAAGTTTTC | 0.975 ± 0.0098
AATTGATAAA | 0.984 ± 0.042
ATTCACATCG | 1.01 ± 0.06
TGGGCGAAAA | 0.974 ± 0.045
TTTTTGTTAA | 1.01 ± 0.013
TTCTTAGCTT | 0.998 ± 0.019
TCTGTAGGTT | 1.03 ± 0.024
TGCGTATTCT | 0.967 ± 0.045
TTGCGTTGCG | 0.9685 ± 0.0036
TGCACCAGGA | 1.13 ± 0.067
TCTATCAGTG | 1.02 ± 0.018
GAAGGGGGGT | 0.997 ± 0.029
GGCAGCAAGT | 1.16 ± 0.013
AGAGTGGTA | 0.9491 ± 0.0052
ATCCAGTGTG | 1.89 ± 0.2

Sequence | switch fluorescence ratio
GAGGTACTAG | 1.02 ± 0.0023
TGCGCCTACC | 1.28 ± 0.058
TTTCTTATTC | 0.983 ± 0.022
GGTCGCAACC | 1.04 ± 0.049
CAGATCTGTA | 1.0087 ± 0.00071
ATTGGGGTGT | 1.01 ± 0.022
TGGTTGTTGT | 0.96 ± 0.014
ACGTTATTGG | 1.14 ± 0.02
GAGGGGGAGG | 0.982 ± 0.019
TATGCTAGC | 1.03 ± 0.091
ATGCGTAGGT | 0.988 ± 0.049
ACGCTTTTGG | 1.03 ± 0.023
ATAATGTATA | 0.9835 ± 0.0028
TTAGGTTCTC | 0.991 ± 0.015
CCACCGGGGC | 2.3 ± 0.12
GCAACTTATT | 0.983 ± 0.022
GAATGGGTAT | 0.979 ± 0.026
TTGCAATTGG | 2.56 ± 2
GATGGGGGAA | 0.986 ± 0.049
TAACTGTAGG | 1.02 ± 0.033
GTTTTGGAGT | 1.05 ± 0.047
GGTGGGGTTG | 1 ± 0.04
TCCAGGGGTC | 1.38 ± 0.13

Sequence | switch fluorescence ratio
TAGAAAGTTG | 0.953 ± 0.083
AGTGGTGAGG | 0.983 ± 0.016
CTTGGTCAAG | 0.9834 ± 0.0062
TATAGTGGCG | 1.02 ± 0.051
AGCTGACGCT | 1.02 ± 0.025
GATTGCGCAT | 1 ± 0.03
ATCGGGGTAT | 0.992 ± 0.042
CGATTTTCCT | 1.01 ± 0.015
TGTAAGAGTG | 0.983 ± 0.021
AAATGATAGC | 1.016 ± 0.0037
TAAAGGTTTT | 0.974 ± 0.04
TTGCCTGTAT | 0.9731 ± 0.0073
GTTGTCATGC | 1.02 ± 0.033
TTTTGATGCG | 0.982 ± 0.031
TTTAGTGTCT | 0.983 ± 0.021
CGATTTGTAA | 0.99 ± 0.031
TGGTTCAGGT | 1.02 ± 0.022
TTTTTCCCCT | 0.992 ± 0.023
AACGTGTACG | 1.01 ± 0.065
AAATGTGGGG | 0.976 ± 0.049
AATTAGATTC | 0.994 ± 0.055
CAGAGTAACA | 0.973 ± 0.03
TACAACGTGG | 0.991 ± 0.012

Sequence | switch fluorescence ratio
GCTAAAGTCT | 1.043 ± 0.0085
GTTGGTGGCT | 0.9581 ± 0.0026
TAAGGGATGG | 0.973 ± 0.043
AGTGACACCT | 1.15 ± 0.054
GGGCTAGGCA | 1.02 ± 0.014
TCGTTTCGGG | 0.985 ± 0.017
GTTTGTTTAA | 0.981 ± 0.017
GCAGGGGATT | 1.01 ± 0.033
CAGGAACGAG | 1.004 ± 0.0035
ATGGTGTCTT | 0.961 ± 0.023
TATTTCTTT | 0.99 ± 0.026
GTGGAAGCCG | 1.013 ± 0.0034
GATGTAGATA | 0.9778 ± 0.0032
TTCCGGTAAC | 2.07 ± 0.13
ACGATCAGGA | 1.026 ± 0.0029
TGATATAGAG | 1 ± 0.029
GGACTTGGGC | 0.986 ± 0.036
GTGTTCTCGC | 0.999 ± 0.05
GCTCGGAGGA | 1 ± 0.025
ACGCCACTGT | 1.71 ± 0.038
AATTTGGTAT | 1.04 ± 0.011
CTCTTATAGT | 0.969 ± 0.019
GCCCTATAGG | 1.01 ± 0.011

Sequence | switch fluorescence ratio
GTTGGCATTT | 1.05 ± 0.092
GACATGATGT | 1.032 ± 0.0063
TAGCGAGTAT | 1 ± 0.011
GGGTGGGGGC | 1.02 ± 0.037
GCAGGGTAAA | 0.986 ± 0.02
ATATGGGCTG | 1.05 ± 0.1
TCCAACTGCA | 1.5 ± 0.087
TATTTTTGGT | 0.986 ± 0.021
GCTTAAGGCT | 1 ± 0.022
GTGTGGCACT | 0.9989 ± 0.0056
AAACTGAAAT | 1.76 ± 1.1
CGGTATGTG | 1.01 ± 0.036
TATCATCGGT | 1 ± 0.047
GGTGATGGGA | 0.976 ± 0.021
TAAAATTTAA | 1.01 ± 0.05
TGTGCTGGGT | 1.02 ± 0.024
TGCCCTTGCG | 0.9827 ± 0.0046
TCTGGGGAAT | 1 ± 0.035
TTGTGTCTTT | 0.986 ± 0.017

From the supplement of paper PMC10126150
